Read-outs that look alike come from different tables or passages of the source.
Columns and labels:
SST2 = biological target: T1, SST2 (Homo sapiens, UniProt P30874); experiment: PathHunter CHO-K1 SST2 internalization assay; assay type: cell-based; details: PathHunter CHO-K1 SST2, 90 min; read-out: Internalization EC50
T1 construct: host or cells: PathHunter CHO-K1 SST2 cells
Procedure, shortened: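 IC50 comes from four-parameter curves on background-corrected duplicates of Beta-Glo luminescence, read after 60 min at room temperature in the dark. Before that, CHO-K1 SST2 internalization cells (48 h post-seeding) received SMDC as eleven threefold dilutions, 10 uM highest final, for 90 min at 37 C.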

[1] = biological target: T2, human somatostatin receptor subtype 2 (Homo sapiens, UniProt P30874); experiment: Functional cAMP assay for SSTR2 agonists (HTRF) in CHO-K1 cells; assay type: cell-based; details: CHO-K1 cells stably expressing human SST2, 20 min; read-out: hSST2 cAMP Avg EC50
T2 construct: expressed in transfected cells
T2 sequence (P30874 whole entry): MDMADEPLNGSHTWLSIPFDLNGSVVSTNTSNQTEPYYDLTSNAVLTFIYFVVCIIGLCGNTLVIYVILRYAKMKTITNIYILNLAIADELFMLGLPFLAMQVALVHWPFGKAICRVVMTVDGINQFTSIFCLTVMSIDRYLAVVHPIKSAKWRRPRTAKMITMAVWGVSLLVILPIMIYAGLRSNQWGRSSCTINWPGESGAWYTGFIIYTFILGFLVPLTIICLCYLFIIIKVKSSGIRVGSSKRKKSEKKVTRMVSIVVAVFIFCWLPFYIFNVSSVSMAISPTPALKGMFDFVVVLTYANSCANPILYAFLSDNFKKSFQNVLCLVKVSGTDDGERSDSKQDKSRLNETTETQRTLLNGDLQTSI
Procedure, shortened: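 Agonism scored as loss of NKH477 (1.6 μM)-driven cAMP, with IBMX present, after 20 min, 37° C. exposure of stably transfected CHO-K1 cells to compound dilutions (typically 0-10,000 nM). Lysates read by time-resolved FRET; cAMP interpolated from standard curve and EC50 derived.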

[2] = tested on: NCI-H524 (ATCC) human small cell lung cancer cells; assay type: cell-based; details: 2 h
Procedure, shortened: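 CellTiter-Glo luminescence after a 2 h SMDC pulse (top dose 1 uM, 2-fold dilutions, 11 points), medium wash, then 70 h recovery. Cells were seeded at 5,000/well and dosed 24 h later. % inhibition vs control gave IC50 via four-parameter fit.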

[3] = H524 tumor biodistribution model: tumor and plasma levels of SMDC and MMAE by LC/MS-MS; assay type: in vivo, female Athymic nude mice; details: H524 tumor bearing nude mice; for level at time molar at 4 h: 4 h after 500 nmol/kg IV; for level at time molar at 24 h: 24 h after 500 nmol/kg IV
Method: In this example, 5 million H524 (Small Cell Lung Cancer) cells in 1:1 Matrigel: cold Media (RPMI1640) were injected into the subcutaneous (SQ) flank of female Athymic nude mice. Tumor volumes and body weights were measured twice a week. The tumors were allowed to grow until they reached 250-500 mm^3 in size before animals were randomized into groups (n=3/time point). Animals were injected intravenously with a SMDC of the present invention at a single dose of 500 nmol/kg. […] BLQ: Below Limit of Quantitation.

[4] = MMAE level 4 h after 500 nmol/kg IV of the conjugate
[5] = MMAE level 24 h after 500 nmol/kg IV of the conjugate
[6] = MMAE level 72 h after 500 nmol/kg IV of the conjugate
[7] = MMAE level 168 h after 500 nmol/kg IV of the conjugate
[8] = MMAE level 240 h after 500 nmol/kg IV of the conjugate
[9] = female, Athymic nude, mouse, plasma, read-out: Conjugate Plasma
[10] = female, Athymic nude, mouse, read-out: Conjugate Tumor

T1 sequence (P30874 whole entry): as above

Compound `CC[C@H](C)[C@@H]([C@@H](CC(=O)N1CCC[C@H]1[C@H](OC)[C@@H](C)C(=O)N[C@H](C)[C@@H](O)c1ccccc1)OC)N(C)C(=O)[C@@H](NC(=O)[C@H](C(C)C)N(C)C(=O)OCc1ccc(NC(=O)[C@H](CCCNC(N)=O)NC(=O)[C@@H](NC(=O)[C@@H](CS(=O)(=O)O)NC(=O)CCOCCC(=O)NCCNc2ncc(-c3cc(C)cc(F)c3)c(N3CCC(N)CC3)c2-c2nc3ccc(Cl)cc3[nH]2)C(C)C)cc1C(=O)NCCN)C(C)C` [Compound 107] has an EC50 (SST2) of 2.2 nM, an EC50 [1] of 0.15 nM and an EC50 [2] of 4 nM. The “Conjugate Plasma (nM)” value ([3]; 72 h after 500 nmol/kg IV) was “BLQ”, the “Conjugate Plasma (nM)” value ([3]; 168 h after 500 nmol/kg IV) was “BLQ” and the “Conjugate Tumor (nM)” value ([3]; 168 h after 500 nmol/kg IV) was “BLQ”. For the same compound, the “Conjugate Plasma (nM)” value ([3]; 240 h after 500 nmol/kg IV) was “BLQ”, the “Conjugate Tumor (nM)” value ([3]; 240 h after 500 nmol/kg IV) was “BLQ” and the “MMAE Plasma” value [3, 4] was 2.26 nM. The “MMAE Tumor” value [3, 4] was 123 nM, the “MMAE Plasma (nM)” value [3, 5] was “BLQ” and the “MMAE Tumor” value [3, 5] was 242 nM. The “MMAE Plasma (nM)” value [3, 6] was “BLQ”, the “MMAE Tumor” value [3, 6] was 141 nM and the “MMAE Plasma (nM)” value [3, 7] was “BLQ”. For the same compound, the “MMAE Tumor” value [3, 7] was 90.1 nM, the “MMAE Plasma (nM)” value [3, 8] was “BLQ” and the “MMAE Tumor” value [3, 8] was 25.2 nM. It also gave a level at time molar at 4 h [3, 9] of 83.1 nM, a level at time molar at 24 h [3, 9] of 0.441 nM and a level at time molar at 4 h [3, 10] of 94.2 nM. The level at time molar at 24 h [3, 10] was 9.26 nM and the level at time molar at 72 h ([3]; female, Athymic nude, mouse, 72 h after 500 nmol/kg IV, read-out: Conjugate Tumor) was 1.64 nM.
